Source: the DeepSol protein solubility set

Assay: soluble on expression in E. coli; label from the status in PepcDB or PDB records
With “MKHEEMNQRFNHLENEITELNKKLSALVSSEDENKRRDEHYAAIYDYCHKVAHETFMKFLQEKFLPAALSEKEAAYLRPEYVITVNSAGEEEHKSDFIASAPDKDQEPHRPFRVSCEEGEFVVYENGKPVRASHHHCLKIINLAIRCLKDENTRVMKRIGRCMGYLQVAAEIEALASGADMDAAVREALLRDFNTPPLRKSLMTGSSRG” the “soluble on expression in E. coli” value was “not soluble”.
In the case of “MDENTRNLIKKVERSVFAGNRAAAAKELGEIGDFDAVPVLLKALEDSSSKVKAAASEALGEINDPDAVPCLMKMLDYPESYVKKAAIIALGKIGTQEAVSGIVKGFRDPDKLIRKESVKALMRIGSPEAVSGLTATFTCPDSPLKRISITALGKINTYEAACGLVKALEDPDNRVRQQAVETLGKRGISDVLEELMELLKDSRQPVQEAASEALCKIIGGSESVPVLVKALGASDRKVRKASIEALGKAGNSEAVSALLKELDDDDWYLRSRAADVLADIASPEAALGLVKALDLHDAPVRKLIVSALGKIGSPETIEGLVKALDDPDNSIREAATLGLGKTGKVEAVPGLLRALHDPKNTVQEAAATSLGDMKAREAVPEFLRILEDPDSLIHKSVIFSLEKIGTPEAVAGLSRALNNPDAMVRKAAAKSLEKIKKSGLPLEKAKNIEISGFNISE”, the “soluble on expression in E. coli” value is reported as “not soluble”.
For “MAHHHHHHMWKAIFGKKVDSIKAIDSIYHLSDNDFRWLQGFPQLKGSDRVQTLASSEGEGSKDDYMEEPVGPVSHRDVLLYTVGIIKGATHPLLRESSLAVTGTHTKEGETFFTLDFR”, the “soluble on expression in E. coli” value was “not soluble”.
In the case of “MAHHHHHHMGTLEAQTQGPGSMGTSQEFETSSLKTLPLYELHEKAGAKFGAFAGWRMPLTYPLGVLKEHLHTRAHAGLFDISHMKLIAVEGPKAVEFLSYALPVDAALLKIGQSRYSYLLNERAGILDDLILTRLAECRFMLVANAGNAQADFAELEKRAFGFECQVIALERVLLALQGPQAAAVLADAGLPGNELLFMQGFEPQQDWFITRSGYTGEDGFEIALPIGCARALAEKLLGDSRVEWVGLAARDSLRLEAGLCLHGNDITPDTTPIDAALTWAVPKNVREKAQFYGAKAFLESLQKGPSRCRVGLKPQTRQPIRAGAVLFDNEGNRIGVVTSGGFGPSFDGPVAMGYVPVAWKVEGTEVFTELRGKKIALSVHSLPFVEQRYFKG”, the “soluble on expression in E. coli” value is reported as “soluble”.
With “MSLQPNTYFLHNILVTGATGFVGSFLCSRLLAEGMSVRGTFLVTENPDSLVKGTEQALIEPIGPATFWGHALAGAGTVIHLAARVHVMRERAADPLKEFRFVNTEGTAHLAREAAKAGVKRFVFMGTIGVNGDNSGDAPYIESSPPYPHNPYSVSKYEAEQLLRQISSETGMEVVIIRAPLVYGPGNPGNFLSLLKAVNGDYGFKTLNFGLKVLPLPLASINNKRSLIYVGNLVDALVTCATHPAAVGQTYLVSDGEDVSTPELIRRTAAALGVPARLFPFPVPLMKLAGKLIDKSAAVNRLTGSLTVDSSKIRRELGWQPPFTMEEGLQETAKWFEKQGEGHHHHHH” the “soluble on expression in E. coli” value was “soluble”.
In the case of “MGSDKIHHHHHHMVAMRIAIIGANGQLGTDLVEVFGNDPEFEVVPLTHKDLDVTIPESLKVLKEIKPDVLINTAAYVRVDDAELYPEKAFAVNAIGALNVARIANEIDAVNVYISTDYVFDGEKGEPYTEEDVPNPINVYGVSKYTGEIFTRNYSPKHYIIRVASLYGKAGASGKGGNFVEWVIEKAKHGEELKIVDDQFMSPTYTKDVARTLKEFLKLRSEFGVYHMVNEGFCSWYEFTEAIFDVLGWNVEIKPIKSNELNRLAKRPRFSALKNEKLEKIGLRMRHWREALEEYLKEKGYV”, the “soluble on expression in E. coli” value is reported as “not soluble”.
With “MLDDVLALIREHDRFFITTHLGPDGDAVGSQLALGRFLEKMGKSVAMVNADEVDYNLDWMPGAGDIAVFDGSLGQHEALAEAEVAFVLDTNDEERIGKVGSLVRDATATTVLVDHHLEPEHWFDVFFVREEAAATGELVYEIIDGLAPDLIDEGIATALYTAIMTDTGSFRYSSVTPALHRSVADILERGGIGPAPIHETIYDRKSMPGLRLLGRMLNRIRLRYNGQLGYSVVTQRMVEDTGASWDDKQGFVNYVLSIEDVKTALLFSETDDGAKISFRSEADVRVDQWARHFGGGGHRNAAGAYVKRPTFEKTIETVIDAASDYIAFDARHAPDDDLSPEDQSYLETLLDDPSDSPLEHHHHHH” the “soluble on expression in E. coli” value was “not soluble”.
For “MGSDKIHHHHHHMSRSPFQTFVWRSEIFECQSTDIQRFYSLLAIETERLGLGSKILGQAGHHPLYLLQSPGQKAGLPNLLISAGFHGEESAGPWGLLHFLSQLDGELFKRVNLSVLPLVNPTGFAKGHRFNELGENPNRGFFIENGKAKPGADTSAEGRILLEHAHLLQVASRDGILTCHEDVLMTDTYVYTFEPSQAPGRFSHSLRDALGQYFPIAADGDVDNCPVRSGVIFNHFDTSFESFLVRSGARVGCCSETPGQQPLDQRILANAAAMNTFVNMLAPELS”, the “soluble on expression in E. coli” value was “not soluble”.
